Laboratory results from patent publication EP2135619A1.

Molecular target: human CC-chemokine receptor 2 (CCR2), endogenous on THP-1 cells, PBMC and whole blood cells (human) (UniProt P41597)
Experiment: cell-based or functional assay

Sequence of UniProt P41597 (P41597 whole entry): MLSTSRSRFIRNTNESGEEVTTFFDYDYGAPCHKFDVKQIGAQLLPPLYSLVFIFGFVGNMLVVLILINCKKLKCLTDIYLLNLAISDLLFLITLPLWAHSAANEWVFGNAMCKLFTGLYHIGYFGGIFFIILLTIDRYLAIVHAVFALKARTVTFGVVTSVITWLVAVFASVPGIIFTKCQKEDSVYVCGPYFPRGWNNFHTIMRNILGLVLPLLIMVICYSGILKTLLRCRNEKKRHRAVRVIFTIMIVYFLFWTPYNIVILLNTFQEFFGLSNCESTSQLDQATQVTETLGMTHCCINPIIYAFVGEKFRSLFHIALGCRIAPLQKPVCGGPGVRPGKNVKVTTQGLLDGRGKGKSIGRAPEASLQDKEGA

MCP-1-induced chemotaxis of fresh PBMC: 10 µg/mL
Substance: murine monoclonal antibody LS132.1D9
